Assay results as given in patent US11505576B2, “Polypeptides based on a scaffold” (AFFIBODY AB, priority 2018, dated 2022).
“Also recorded” adds a separate entry of the source.

What was measured:
[1] = Circular dichroism spectroscopy analysis (CD spectra, variable temperature measurement, refolding); type: physicochemical
Method: The respective Y variant was diluted to 0.5 mg/ml in PBS. A CD spectrum at 250-195 nm was obtained at 20° C. In addition, a variable temperature measurement (VTM) was performed to determine the melting temperature (Tm). In the VTM, absorbance was measured at 221 nm while the temperature was raised from 20° C. to 90° C. with a temperature gradient of 5° C./min. A new CD spectrum was obtained at 20° C. after the heating procedure, in order to study the refolding ability of the Y variants. The CD measurements were performed on a Jasco J-810 spectropolarimeter (Jasco Scandinavia AB) using a cell with an optical path length of 1 mm.
(§1) Produced Y variants were subjected to CD and SPR analyses according to the methods described in Example 1.
(§2) The Y variants were cloned, produced and characterized according to the general methods described in Example 1. Produced Y variants with point mutations and/or N-terminal or C-terminal extensions were subjected to CD and SPR analyses as described in Example 1.
(§3) Produced Y variants were subjected to CD and SPR analyses according to the methods described in Example 1. In addition, CD spectra of selected IL-6 binding variants were also recorded at 60, 70, 80 and 90° C.
(§4) The Y variants were cloned, produced and characterized according to the general methods described in Example 1. Produced Y variants with point mutations were subjected to CD and SPR analyses as described in Example 1. In addition, CD spectra of the IL-6 binding variants were also recorded at 60, 70, 80 and 90° C.

insulin = biological target: T1, insulin (Homo sapiens, UniProt P01308); assay: Kinetic analysis using surface plasmon resonance (Biacore T200), immobilized insulin; type: binding
T1 construct: purchased Roche 1376497
Method: Kinetic constants (ka and kd) and affinities (KD) were determined for His6-tagged Y variants using a Biacore T200 instrument (GE Healthcare). Target proteins C4, IL-6 and insulin, respectively, were immobilized in separate flow cells on the carboxylated dextran layer of different CM5 chip surfaces (GE Healthcare). Immobilization was performed using amine coupling chemistry according to the manufacturer's protocol and PBS pH 7.4 supplemented with 0.1 Tween20 (PBST 0.1%) as running buffer. The ligand immobilization levels on the surfaces were 3280-8830 RU for C4, 495-1184 RU for IL-6, and 270-282 RU for insulin. One flow cell surface on each chip was activated and deactivated for use as blank during analyte injections. In the kinetic experiment, PBST 0.1% was used as running buffer at a flow rate of 30 μl/min. The analytes, i.e. Y variants, were each diluted in PBST 0.1 buffer at concentrations of 1000, 500, 100, 50 and 10 nM and injected for 5 min, followed by dissociation in running buffer for 3 min. After dissociation, the surfaces were regenerated with one injection of 30 μl 10 mM HCl. Kinetic constants were calculated from the sensorgrams using the Langmuir 1:1 model of Biacore T200 Evaluation software 2.0 (GE Healthcare).
as §1, §2, §3, §4

[2] = Table 2, Ylib001Naive.I selection, MGSSHHHHHHGSS-[Y#####]-ASGSVD, 0.5 mg/ml in PBS, 221 nm, 20-90° C.
[3] = Table 3, mutation study 1, MGSSHHHHHHGSS-[Y#####]
[4] = Table 2, His6-tagged Y variant, MGSSHHHHHHGSS-[Y#####]-ASGSVD
[5] = Table 4, mutation study 2, MGSSHHHHHHGSS-[Y#####]

T1 sequence (P01308 25-54 limits assumed): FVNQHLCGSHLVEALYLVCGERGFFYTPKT
T1 sequence (P01308 90-110 limits assumed): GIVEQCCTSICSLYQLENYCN

| Kd (insulin; [3]) [nM] | Substance | Tm [1, 3] [°C] | Tm [1, 5] [°C] | further results |
| --- | --- | --- | --- | --- |
|  | Y00001: C4 binding Y variant from Ylib001Naive.I, SEQ ID NO:1 (LAEAKEAAIAELDSKGINEAIISKIERAESVEEVEYWKEEILAQLP; Engineered C4 binding Y variant) | 57 |  | Tm [1, 2]: 61 °C |
|  | Y00004: C4 binding Y variant from Ylib001Naive.I, SEQ ID NO:4 (LAEAKEAANAELDSYGVDADLIKKIERAESVEEVEFWKEEILAHLP; Engineered C4 binding Y variant) |  |  | Tm [1, 2]: 45 °C |
|  | Y00005: C4 binding Y variant from Ylib001Naive.I, SEQ ID NO:5 (LAEAKEAAIAELDSAGVNEVQKSKIEQASSVEEVEFWKEEILAQLP; Engineered C4 binding Y variant) |  |  | Tm [1, 2]: 60 °C |
|  | Y00006: C4 binding Y variant from Ylib001Naive.I, SEQ ID NO:6 (LAEAKEAAIAELDSYGVVANLKKKIEIAKSVEQVEFWKEEILAQLP; Engineered C4 binding Y variant) |  |  | Tm [1, 2]: 49 °C |
| 63 | Y00032: insulin binding Y variant from Ylib001Naive.I, SEQ ID NO:90 (LAEAKEAAIAELDSKGVGAYQKSFIELAKSVEHVELLKEAILADLP; Engineered insulin binding Y variant) | 49 | 49 | Kd (insulin; [4]): 50 nM; α-helical content / ability to fold into an α-helical structure ([1]; CD spectrum at 20° C.): considerably higher α-helical content; also recorded: good ability to fold into an α-helical structure; Tm [1, 2]: 47 °C |
|  | Y00125: insulin binding Y variant, SEQ ID NO:106; differs from Y00032 by N in position 9 (LAEAKEAANAELDSKGVGAYQKSFIELAKSVEHVELLKEAILADLP; Engineered insulin binding Y variant) |  |  | Kd (insulin; [4]): 110 nM; Tm [1, 2]: 35 °C |
|  | Y00262: C4 binding Y variant, Y00001 with S23K, SEQ ID NO:18 (LAEAKEAAIAELDSKGINEAIIKKIERAESVEEVEYWKEEILAQLP; Engineered C4 binding Y variant) | 61 | 61 |  |
| 130 | Y00263: insulin binding Y variant, Y00032 with D13K, SEQ ID NO:110 (LAEAKEAAIAELKSKGVGAYQKSFIELAKSVEHVELLKEAILADLP; Engineered insulin binding Y variant) | 43 |  |  |
| 64 | Y00264: insulin binding Y variant, Y00032 with K15Y, SEQ ID NO:111 (LAEAKEAAIAELDSYGVGAYQKSFIELAKSVEHVELLKEAILADLP; Engineered insulin binding Y variant) | 48 |  |  |
| 120 | Y00265: insulin binding Y variant, Y00032 with V17I, SEQ ID NO:112 (LAEAKEAAIAELDSKGIGAYQKSFIELAKSVEHVELLKEAILADLP; Engineered insulin binding Y variant) | 47 |  |  |
| 56 | Y00266: insulin binding Y variant, Y00032 with G18S, SEQ ID NO:113 (LAEAKEAAIAELDSKGVSAYQKSFIELAKSVEHVELLKEAILADLP; Engineered insulin binding Y variant) | 50 |  |  |
| 59 | Y00267: insulin binding Y variant, Y00032 with A19E, SEQ ID NO:114 (LAEAKEAAIAELDSKGVGEYQKSFIELAKSVEHVELLKEAILADLP; Engineered insulin binding Y variant) | 48 |  |  |
| 84 | Y00268: insulin binding Y variant, Y00032 with K22I, SEQ ID NO:115 (LAEAKEAAIAELDSKGVGAYQISFIELAKSVEHVELLKEAILADLP; Engineered insulin binding Y variant) | 49 |  |  |
| 390 | Y00269: insulin binding Y variant, Y00032 with S23K, SEQ ID NO:116 (LAEAKEAAIAELDSKGVGAYQKKFIELAKSVEHVELLKEAILADLP; Engineered insulin binding Y variant) | 50 |  |  |
| 77 | Y00270: insulin binding Y variant, Y00032 with K22I + S23K, SEQ ID NO:117 (LAEAKEAAIAELDSKGVGAYQIKFIELAKSVEHVELLKEAILADLP; Engineered insulin binding Y variant) | 52 | 52 |  |
| 47 | Y00271: insulin binding Y variant, Y00032 with E26Q, SEQ ID NO:118 (LAEAKEAAIAELDSKGVGAYQKSFIQLAKSVEHVELLKEAILADLP; Engineered insulin binding Y variant) | 49 |  |  |
| 110 | Y00272: insulin binding Y variant, Y00032 with A28G, SEQ ID NO:119 (LAEAKEAAIAELDSKGVGAYQKSFIELGKSVEHVELLKEAILADLP; Engineered insulin binding Y variant) | 34 |  |  |
| 77 | Y00273: insulin binding Y variant, Y00032 with E32Q, SEQ ID NO:120 (LAEAKEAAIAELDSKGVGAYQKSFIELAKSVQHVELLKEAILADLP; Engineered insulin binding Y variant) |  |  |  |
| 56 | Y00274: insulin binding Y variant, Y00032 with E35Q, SEQ ID NO:121 (LAEAKEAAIAELDSKGVGAYQKSFIELAKSVEHVQLLKEAILADLP; Engineered insulin binding Y variant) | 53 |  |  |
|  | Y00282: C4 binding Y variant, Y00262 with I17V, SEQ ID NO:19 (LAEAKEAAIAELDSKGVNEAIIKKIERAESVEEVEYWKEEILAQLP; Engineered C4 binding Y variant) |  | 61 |  |
|  | Y00283: C4 binding Y variant, Y00262 with N18S, SEQ ID NO:20 (LAEAKEAAIAELDSKGISEAIIKKIERAESVEEVEYWKEEILAQLP; Engineered C4 binding Y variant) |  | 61 |  |
|  | Y00284: C4 binding Y variant, Y00262 with E19A, SEQ ID NO:21 (LAEAKEAAIAELDSKGINAAIIKKIERAESVEEVEYWKEEILAQLP; Engineered C4 binding Y variant) |  | 64 |  |
|  | Y00285: C4 binding Y variant, Y00262 with I22K, SEQ ID NO:22 (LAEAKEAAIAELDSKGINEAIKKKIERAESVEEVEYWKEEILAQLP; Engineered C4 binding Y variant) |  | 57 |  |
|  | Y00286: C4 binding Y variant, Y00262 with E26Q, SEQ ID NO:23 (LAEAKEAAIAELDSKGINEAIIKKIQRAESVEEVEYWKEEILAQLP; Engineered C4 binding Y variant) |  | 62 |  |
|  | Y00287: C4 binding Y variant, Y00262 with E35Q, SEQ ID NO:24 (LAEAKEAAIAELDSKGINEAIIKKIERAESVEEVQYWKEEILAQLP; Engineered C4 binding Y variant) |  | 62 |  |
|  | Y00288: C4 binding Y variant, Y00262 with E39Q, SEQ ID NO:25 (LAEAKEAAIAELDSKGINEAIIKKIERAESVEEVEYWKQEILAQLP; Engineered C4 binding Y variant) |  | 66 |  |
|  | Y00289: C4 binding Y variant, Y00262 with E35Q + E39Q, SEQ ID NO:26 (LAEAKEAAIAELDSKGINEAIIKKIERAESVEEVQYWKQEILAQLP; Engineered C4 binding Y variant) |  | 65 |  |
|  | Y00290: C4 binding Y variant, Y00262 with E35Q + A43K, SEQ ID NO:27 (LAEAKEAAIAELDSKGINEAIIKKIERAESVEEVQYWKEEILKQLP; Engineered C4 binding Y variant) |  | 69 |  |
|  | Y00291: C4 binding Y variant, Y00262 with E35Q + E39Q + A43K, SEQ ID NO:28 (LAEAKEAAIAELDSKGINEAIIKKIERAESVEEVQYWKQEILKQLP; Engineered C4 binding Y variant) |  | 66 |  |
